Assay results: article PMC5909953 (Current biology : CB, 2017)

Target: the molecule itself
Test: single molecule photobleaching

B1: Kif15-FL-GFP-His6 (natural protein, human, UniProt Q9NS87 1-1388, looked up)
chain: MAPGCKTELRSVTNGQSNQPSNEGDAIKVFVRIRPPAERSGSADGEQNLCLSVLSSTSLRLHSNPEPKTFTFDHVADVDTTQESVFATVAKSIVESCMSGYNGTIFAYGQTGSGKTFTMMGPSESDNFSHNLRGVIPRSFEYLFSLIDREKEKAGAGKSFLCKCSFIEIYNEQIYDLLDSASAGLYLREHIKKGVFVVGAVEQVVTSAAEAYQVLSGGWRNRRVASTSMNRESSRSHAVFTITIESMEKSNEIVNIRTSLLNLVDLAGSERQKDTHAEGMRLKEAGNINRSLSCLGQVITALVDVGNGKQRHVCYRDSKLTFLLRDSLGGNAKTAIIANVHPGSRCFGETLSTLNFAQRAKLIKNKAVVNEDTQGNVSQLQAEVKRLKEQLAELASGQTPPESFLTRDKKKTNYMEYFQEAMLFFKKSEQEKKSLIEKVTQLEDLTLKKEKFIQSNKMIVKFREDQIIRLEKLHKESRGGFLPEEQDRLLSELRNEIQTLREQIEHHPRVAKYAMENHSLREENRRLRLLEPVKRAQEMDAQTIAKLEKAFSEISGMEKSDKNQQGFSPKAQKEPCLFANTEKLKAQLLQIQTELNNSKQEYEEFKELTRKRQLELESELQSLQKANLNLENLLEATKACKRQEVSQLNKIHAETLKIITTPTKAYQLHSRPVPKLSPEMGSFGSLYTQNSSILDNDILNEPVPPEMNEQAFEAISEELRTVQEQMSALQAKLDEEEHKNLKLQQHVDKLEHHSTQMQELFSSERIDWTKQQEELLSQLNVLEKQLQETQTKNDFLKSEVHDLRVVLHSADKELSSVKLEYSSFKTNQEKEFNKLSERHMHVQLQLDNLRLENEKLLESKACLQDSYDNLQEIMKFEIDQLSRNLQNFKKENETLKSDLNNLMELLEAEKERNNKLSLQFEEDKENSSKEILKVLEAVRQEKQKETAKCEQQMAKVQKLEESLLATEKVISSLEKSRDSDKKVVADLMNQIQELRTSVCEKTETIDTLKQELKDINCKYNSALVDREESRVLIKKQEVDILDLKETLRLRILSEDIERDMLCEDLAHATEQLNMLTEASKKHSGLLQSAQEELTKKEALIQELQHKLNQKKEEVEQKKNEYNFKMRQLEHVMDSAAEDPQSPKTPPHFQTHLAKLLETQEQEIEDGRASKTSLEHLVTKLNEDREVKNAEILRMKEQLREMENLRLESQQLIEKNWLLQGQLDDIKRQKENSDQNHPDNQQLKNEQEESIKERLAKSKIVEEMLKMKADLEEVQSALYNKEMECLRMTDEVERTQTLESKAFQEKEQLRSKLEEMYEERERTSQEMEMLRKQVECLAEENGKLVGHQNLHQKIQYVVRLKKENVRLAEETEKLRAENVFLKEKKRSES
  stoichiometry N: 2
